Here are results for one molecule from patent US20030044789A1, “Identification and quantification of a protein carrying an N-terminal polyhistidine affinity tag” (priority 2000, published 2003).

This assay deals with Penta-His antibody. Kind of assay: Competition study with HisTagged proteins (HisTag FPIA). The class given is binding. Particulars: 1-2 nM fluor-AHHHHHHG, 10 nM Penta-His antibody, approx. 60 min at room temperature; read-out: approximate IC50 (concentration of competitor required to decrease FP signal by 50%). As to the method: Purified N-terminal HisTagged proteins were serially diluted into PBS +0.01% NP-40 in a multiwell plates. 1-2 nM fluorescein labeled peptide (fluor-AHHHHHHG) and 10 nM of Penta-His antibody were then added to each reaction to a final volume of 50-100 ul. After approximately 60 min incubation at room temperature to insure equilibrium binding, the polarization was measured on a Tecan Polarian multiwell instrument.
Protein Kinase A (PKA) is a serine/threonine kinase, ZAP-70 is a tyrosine kinase, and the Estrogen Receptor Ligand Binding Domain (ER-LBD) is comprised of the C-terminal 300 amino acids of ERα; all three proteins were highly purified and active.

B1: ZAP-70: recombinant human tyrosine kinase with N-terminal six-histidine fusion (protein, UniProt P43403 1-619, looked up)
Tyrosine-protein kinase ZAP-70: MPDPAAHLPFFYGSISRAEAEEHLKLAGMADGLFLLRQCLRSLGGYVLSLVHDVRFHHFPIERQLNGTYAIAGGKAHCGPAELCEFYSRDPDGLPCNLRKPCNRPSGLEPQPGVFDCLRDAMVRDYVRQTWKLEGEALEQAIISQAPQVEKLIATTAHERMPWYHSSLTREEAERKLYSGAQTDGKFLLRPRKEQGTYALSLIYGKTVYHYLISQDKAGKYCIPEGTKFDTLWQLVEYLKLKADGLIYCLKEACPNSSASNASGAAAPTLPAHPSTLTHPQRRIDTLNSDGYTPEPARITSPDKPRPMPMDTSVYESPYSDPEELKDKKLFLKRDNLLIADIELGCGNFGSVRQGVYRMRKKQIDVAIKVLKQGTEKADTEEMMREAQIMHQLDNPYIVRLIGVCQAEALMLVMEMAGGGPLHKFLVGKREEIPVSNVAELLHQVSMGMKYLEEKNFVHRDLAARNVLLVNRHYAKISDFGLSKALGADDSYYTARSAGKWPLKWYAPECINFRKFSSRSDVWSYGVTMWEALSYGQKPYKKMKGPEVMAFIEQGKRMECPPECPPELYALMSDCWIYKWEDRPDFLTVEQRMRACYYSLASKVEGPPGSTQKAEAACA
modifications: N-terminal polyhistidine tag
Turning to B1, the IC50 is roughly 36 nM.
